Experimental data published in US20260146103A1 (J DAVID GLADSTONE INSTITUTES A TESTAMENTARY TRUST …, published 2026).

Experiments:
[1] = target: T1, P2 peptide (YSMKETTMKIIPFNRLTIG); test: solid phase ELISA, 30 µM P2 peptide coated
T1 peptide: YSMKETTMKIIPFNRLTIG
Description: Based on the fibrinogen peptide profiling (FIG. 8), 15mers were selected to carry out individual peptide binding validation using solid phase ELISA. High purity 15mers were synthesized (Genemed) and then each were diluted at 30 μM in 20 mM HEPES buffer, coated in separate wells and dried overnight. Antibody G was incubated on peptide coated wells for 2 hours at 37° C., at a concentration of 25 or 50 μg/mL.

[2] = target: FIBG 331-345 peptide (human) (UniProt P02679); test: solid phase ELISA, 30 µM FIBG331-345 peptide coated
[3] = target: T2, fibrin (UniProt P02671 36-629; P02675 45-491; P02679 27-437); test: solid phase ELISA, 25 µg/mL IgG-depleted fibrin coated, 12-point 3-fold dilution
T2 construct: also called IgG-depleted fibrin; fibrin networks
T2 sequence (looked up) 1: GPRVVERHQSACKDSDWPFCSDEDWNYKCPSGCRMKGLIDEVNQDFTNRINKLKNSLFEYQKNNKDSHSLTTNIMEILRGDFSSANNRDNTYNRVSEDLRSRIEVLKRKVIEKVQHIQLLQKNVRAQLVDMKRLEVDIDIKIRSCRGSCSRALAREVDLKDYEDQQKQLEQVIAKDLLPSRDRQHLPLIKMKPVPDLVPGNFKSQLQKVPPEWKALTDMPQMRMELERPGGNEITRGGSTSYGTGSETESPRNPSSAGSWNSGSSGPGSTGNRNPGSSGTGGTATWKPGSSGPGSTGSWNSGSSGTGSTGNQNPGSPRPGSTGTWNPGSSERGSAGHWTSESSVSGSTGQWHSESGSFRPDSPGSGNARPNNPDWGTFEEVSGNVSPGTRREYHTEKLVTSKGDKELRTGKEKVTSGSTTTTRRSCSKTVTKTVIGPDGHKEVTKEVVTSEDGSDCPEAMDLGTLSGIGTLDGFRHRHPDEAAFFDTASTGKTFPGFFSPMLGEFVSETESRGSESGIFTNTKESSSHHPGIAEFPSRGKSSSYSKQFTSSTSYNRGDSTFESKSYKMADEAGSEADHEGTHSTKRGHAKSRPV
T2 sequence (looked up) 2: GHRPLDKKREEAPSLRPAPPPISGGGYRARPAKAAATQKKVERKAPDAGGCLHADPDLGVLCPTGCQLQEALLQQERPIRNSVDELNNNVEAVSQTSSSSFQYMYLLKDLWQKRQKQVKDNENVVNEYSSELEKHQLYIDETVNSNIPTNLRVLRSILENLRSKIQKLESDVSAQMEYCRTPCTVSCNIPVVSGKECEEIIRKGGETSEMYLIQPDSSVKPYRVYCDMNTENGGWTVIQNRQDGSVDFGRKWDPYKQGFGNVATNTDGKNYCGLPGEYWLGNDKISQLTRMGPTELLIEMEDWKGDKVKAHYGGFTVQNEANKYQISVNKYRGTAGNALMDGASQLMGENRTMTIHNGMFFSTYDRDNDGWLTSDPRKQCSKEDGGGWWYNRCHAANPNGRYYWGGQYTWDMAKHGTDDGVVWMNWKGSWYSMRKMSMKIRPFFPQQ
T2 sequence (looked up) 3: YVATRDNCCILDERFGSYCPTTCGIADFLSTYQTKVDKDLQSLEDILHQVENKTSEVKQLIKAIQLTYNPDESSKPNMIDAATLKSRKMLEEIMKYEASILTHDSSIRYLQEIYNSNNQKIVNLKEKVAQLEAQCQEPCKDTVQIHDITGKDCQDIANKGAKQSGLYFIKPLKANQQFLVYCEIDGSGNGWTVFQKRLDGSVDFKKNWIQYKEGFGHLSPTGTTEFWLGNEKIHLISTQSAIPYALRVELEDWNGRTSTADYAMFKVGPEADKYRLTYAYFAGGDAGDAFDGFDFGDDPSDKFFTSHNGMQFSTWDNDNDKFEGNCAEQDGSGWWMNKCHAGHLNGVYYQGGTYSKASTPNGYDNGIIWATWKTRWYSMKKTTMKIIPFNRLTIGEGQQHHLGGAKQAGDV
Description: (§1) Solid phase ELISA was used to assess whether Antibody G binds to fibrinogen and fibrin separately. Antibody G was incubated for 2 hours at 37° C. on 25 μg/mL IgG-depleted fibrinogen or fibrin in 20 mM HEPES buffer, pH7.2, coated and dried overnight in high protein-binding ELISA plates.
Solid phase ELISA was used to assess murine Antibody G binding to fibrin. Antibody G was incubated for 2 hours at 37° C. on 25 μg/mL IgG-depleted fibrin in 20 mM HEPES buffer, pH7.2, coated and dried overnight in high protein-binding ELISA plates.

[4] = target: T3, fibrinogen (UniProt P02671 20-629; P02675 31-491; P02679 27-437, limits assumed); test: solid phase ELISA, 25 µg/mL IgG-depleted fibrinogen coated, 12-point 3-fold dilution
T3 construct: also called IgG-depleted fibrinogen
T3 sequence (looked up) 1: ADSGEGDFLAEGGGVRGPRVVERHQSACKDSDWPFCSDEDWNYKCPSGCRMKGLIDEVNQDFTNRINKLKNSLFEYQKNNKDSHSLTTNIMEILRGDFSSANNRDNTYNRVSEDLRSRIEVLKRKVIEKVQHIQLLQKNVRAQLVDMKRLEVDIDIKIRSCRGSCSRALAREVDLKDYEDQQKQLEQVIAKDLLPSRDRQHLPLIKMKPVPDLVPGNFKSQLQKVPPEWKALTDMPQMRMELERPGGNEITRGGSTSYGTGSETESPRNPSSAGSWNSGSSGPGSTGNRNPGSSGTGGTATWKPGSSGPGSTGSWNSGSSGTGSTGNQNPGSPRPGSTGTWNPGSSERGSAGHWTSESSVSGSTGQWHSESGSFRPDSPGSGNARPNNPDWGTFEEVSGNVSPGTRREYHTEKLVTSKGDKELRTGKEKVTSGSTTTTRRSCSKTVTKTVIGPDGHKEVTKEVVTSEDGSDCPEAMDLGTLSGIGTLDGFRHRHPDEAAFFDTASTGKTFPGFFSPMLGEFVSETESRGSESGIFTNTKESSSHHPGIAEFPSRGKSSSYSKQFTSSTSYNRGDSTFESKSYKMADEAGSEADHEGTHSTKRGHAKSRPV
T3 sequence (looked up) 2: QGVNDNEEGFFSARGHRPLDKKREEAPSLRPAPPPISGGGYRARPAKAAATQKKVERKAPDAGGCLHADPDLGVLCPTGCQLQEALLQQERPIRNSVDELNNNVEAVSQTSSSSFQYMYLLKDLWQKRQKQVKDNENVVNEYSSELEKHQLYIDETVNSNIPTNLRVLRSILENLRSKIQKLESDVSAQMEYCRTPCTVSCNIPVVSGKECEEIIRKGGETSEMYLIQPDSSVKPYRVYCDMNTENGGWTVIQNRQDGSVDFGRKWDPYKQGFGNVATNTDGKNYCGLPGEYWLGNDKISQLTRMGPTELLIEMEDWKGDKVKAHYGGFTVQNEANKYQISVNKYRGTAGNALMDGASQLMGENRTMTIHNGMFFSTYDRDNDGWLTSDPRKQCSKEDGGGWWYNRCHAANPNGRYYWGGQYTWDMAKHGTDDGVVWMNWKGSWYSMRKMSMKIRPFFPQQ
T3 sequence (looked up) 3: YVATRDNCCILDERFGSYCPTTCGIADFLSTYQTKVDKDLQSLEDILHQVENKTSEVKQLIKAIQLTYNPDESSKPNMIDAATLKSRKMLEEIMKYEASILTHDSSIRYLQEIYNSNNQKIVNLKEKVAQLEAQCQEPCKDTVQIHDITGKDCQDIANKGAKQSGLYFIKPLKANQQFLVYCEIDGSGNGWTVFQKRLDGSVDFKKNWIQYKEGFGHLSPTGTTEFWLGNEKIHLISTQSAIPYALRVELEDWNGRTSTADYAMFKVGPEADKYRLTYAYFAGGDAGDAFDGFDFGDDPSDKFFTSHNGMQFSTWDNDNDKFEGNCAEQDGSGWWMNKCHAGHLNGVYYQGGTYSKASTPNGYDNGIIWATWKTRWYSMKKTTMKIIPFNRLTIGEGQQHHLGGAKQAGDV
Description: as §1

B1: Antibody G (45-C1C3) (antibody, V domains shown)
VH: EVQLVESGGGAVQPGRSLRLSCAASGVSFSNIGMHWVRQAPGKGLEWVALISSDGRHTHYADSVKGRFTISRDNSENTLYLQINGLRADDTAVYYCAKGLDTRARYMGKFYTFDYWGQGTLVTVSS
VL: DIQLTQSPSSLSASVGDRVTITCRASQNIGVNLNWYQQRPGKGPKLLVSSTFSLQSGVPSRFSASGAGTNFTLTISSLQPEDYVTYYCQQSYSSPFTFGPGTKVDIK
notes: also called mAb G; Ab G
With B1 as the binder, how does the Kd [1] read?
Its Kd is 11.8 µM.

And the Kd [2]?
Its Kd is 0.36 µM.

What about the Kd [3] of the same binder?
The Kd was 0.16 µM.

And the Kd [4]?
The Kd was 0.66 µM.

B2: murine Antibody G (mu-AbG) (antibody, mouse IgG2a, kappa, V domains shown)
VH: EVQLVESGGGAVQPGRSLRLSCAASGVSFSNIGMHWVRQAPGKGLEWVALISSDGRHTHYADSVKGRFTISRDNSENTLYLQINGLRADDTAVYYCAKGLDTRARYMGKFYTFDYWGQGTLVTVSS
VL: DIQLTQSPSSLSASVGDRVTITCRASQNIGVNLNWYQQRPGKGPKLLVSSTFSLQSGVPSRFSASGAGTNFTLTISSLQPEDYVTYYCQQSYSSPFTFGPGTKVDIKR
notes: Variable domains of Antibody G with mouse IgG2a heavy and mouse kappa light constant regions; also called murine mAb G
For B2, which Kd [3] is on record?
The Kd was 0.04 µM.
